Earlier results in PMC6995525, “Structure of the PUB Domain from Ubiquitin Regulatory X Domain Protein 1 (UBXD1) and Its Interaction with the p97 AAA+ ATPase” (Biomolecules, 2019).

Biological target: p97 last 10 residues (Homo sapiens) (UniProt P55072)
Sequence (P55072 whole entry, looked up): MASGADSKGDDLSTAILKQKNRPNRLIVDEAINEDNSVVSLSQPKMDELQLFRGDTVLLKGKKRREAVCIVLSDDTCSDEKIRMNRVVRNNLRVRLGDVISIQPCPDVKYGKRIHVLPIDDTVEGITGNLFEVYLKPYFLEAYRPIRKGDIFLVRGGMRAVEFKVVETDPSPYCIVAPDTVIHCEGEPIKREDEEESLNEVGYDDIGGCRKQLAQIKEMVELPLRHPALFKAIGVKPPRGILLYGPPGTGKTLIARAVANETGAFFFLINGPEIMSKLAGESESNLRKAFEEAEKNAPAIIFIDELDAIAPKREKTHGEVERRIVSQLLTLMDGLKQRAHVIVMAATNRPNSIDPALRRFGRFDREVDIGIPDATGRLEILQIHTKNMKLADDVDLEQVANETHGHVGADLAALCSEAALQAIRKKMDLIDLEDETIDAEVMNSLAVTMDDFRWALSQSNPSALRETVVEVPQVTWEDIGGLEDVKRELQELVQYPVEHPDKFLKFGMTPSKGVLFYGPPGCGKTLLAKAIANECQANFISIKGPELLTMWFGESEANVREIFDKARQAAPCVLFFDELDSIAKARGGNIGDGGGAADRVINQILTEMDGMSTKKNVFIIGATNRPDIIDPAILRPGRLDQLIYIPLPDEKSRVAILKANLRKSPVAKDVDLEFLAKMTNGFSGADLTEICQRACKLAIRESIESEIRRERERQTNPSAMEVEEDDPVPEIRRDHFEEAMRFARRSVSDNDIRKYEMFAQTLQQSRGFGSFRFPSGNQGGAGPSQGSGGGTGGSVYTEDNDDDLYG

UBXD1 PUB, sequence (Q9BZV1 172-247): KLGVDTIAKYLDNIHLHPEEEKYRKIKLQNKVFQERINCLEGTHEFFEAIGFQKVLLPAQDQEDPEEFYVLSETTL

For UBXD1 PUB (from UniProt Q9BZV1), the Kd is given as 12 µM.
